Patent US20120316071A1 (published 2012)
Numbering of substitutions follows the chain as printed. Names and notes keep the numbering of the source. Each block holds one binder with its values, some of them ahead of it.

How the values were obtained:
[1] = target: T1, Recombinant Human DLL4 (delta-like protein 4) (human, UniProt Q9NR61 27-524); assay: ELISA, Fab on plate-coated DLL4
T1 construct: Bought recombinant human DLL4 (R&D Systems Cat#1506-D4/CF); also called rHuman DLL4; Delta-like 4

[2] = target: T1, Recombinant Human DLL4 (delta-like …); assay: ECL (MSD) binding assay, Fab on immobilized DLL4
[3] = target: T2, Recombinant Human DLL4 (delta-like protein 4) (human, UniProt Q9NR61 27-524); assay: ELISA, DLL4-coated plate, Fab in solution
T2 construct: Bought recombinant human DLL4 (R&D Systems Cat#1506-D4/CF); also called rHuman DLL4; Delta-like 4

[4] = target: T2, Recombinant Human DLL4 (delta-like …); assay: ECL (MSD) binding assay, DLL4 on plate, Fab in solution
[5] = target: T3, Recombinant Human DLL4 (delta-like protein 4) (human, UniProt Q9NR61 27-524); assay: ELISA on coated DLL4, Fab at 6.25 nM (2-fold serial dilution)
T3 construct: also called rHuman DLL4; Delta-like 4

[6] = target: T3, Recombinant Human DLL4 (delta-like …); assay: ELISA, Fab on coated DLL4, absorbance at 450 nm
[7] = target: T3, Recombinant Human DLL4 (delta-like …); assay: ELISA on coated DLL4, Fab at 50 nM (2-fold serial dilution)
[8] = target: T3, Recombinant Human DLL4 (delta-like …); assay: ELISA on coated DLL4, Fab at 25 nM (2-fold serial dilution)
[9] = target: T3, Recombinant Human DLL4 (delta-like …); assay: ELISA on coated DLL4, Fab at 100 nM (2-fold serial dilution)
[10] = target: T3, Recombinant Human DLL4 (delta-like …); assay: ELISA on coated DLL4, Fab at 12.5 nM (2-fold serial dilution)
[11] = target: T3, Recombinant Human DLL4 (delta-like …); assay: ELISA on coated DLL4, Fab at 3.125 nM (2-fold serial dilution)
[12] = target: T3, Recombinant Human DLL4 (delta-like …); assay: ECL (MSD) binding assay, Fab on immobilised recombinant human DLL4
[13] = target: T4, Recombinant Human DLL4 (R&D Systems Cat#1506-D4/CF) (human, UniProt Q9NR61 27-524); assay: ELISA, Fab on plate-coated DLL4, absorbance at 450 nm
T4 construct: also called rHuman DLL4; delta-like protein 4

[14] = target: T4, Recombinant Human DLL4 (R&D Systems …); assay: ECL (MSD) multispot binding assay, Fab on immobilized recombinant human DLL4
[15] = target: T5, rHuman HGF R/c-MET/Fc Chimera, CF (R&D Systems Cat#358-MT/CF) (human, UniProt P08581 25-932); assay: ECL (MSD) multispot binding assay, antigen spotted on plate, 20 nM Fab;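 further: purified Fab incubated 1 h at 20 °C on antigen-spotted plate, bound Fab revealed with TAG detection antibody, ECL read, antigen signal divided by same-well blank, ratio ≥4 counted as hit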
T5 construct: Bought recombinant protein; also called HGF R/Fc; hepatocyte growth factor receptor; Fc part of the bought chimera not given

[16] = target: T6, rHuman CD44/Fc Chimera, CF (R&D Systems Cat#3660-CD) (human, UniProt P16070 21-220); assay: as above
T6 construct: Bought recombinant protein; Fc part of the bought chimera not given

[17] = target: T7, rHuman Erythropoietin R/Fc Chimera, CF (R&D Systems Cat#963-ER) (human, UniProt P19235 25-250); assay: as above
T7 construct: Bought recombinant protein; also called EPO R; EPO R/Fc; Fc part of the bought chimera not given
T7 sequence (looked up): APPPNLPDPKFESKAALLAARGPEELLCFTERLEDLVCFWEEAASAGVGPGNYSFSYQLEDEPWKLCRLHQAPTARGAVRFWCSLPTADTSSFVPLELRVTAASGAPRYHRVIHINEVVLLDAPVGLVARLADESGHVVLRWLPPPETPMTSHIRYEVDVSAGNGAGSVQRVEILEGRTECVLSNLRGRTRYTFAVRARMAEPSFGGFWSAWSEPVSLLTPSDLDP

[18] = target: T8, rHuman ErbB2/Fc Chimera, CF (R&D Systems Cat#1129-ER) (human, UniProt P04626 23-652); assay: as above
T8 construct: Bought recombinant protein; also called human epidermal growth factor 2 receptor; Fc part of the bought chimera not given

[19] = target: T9, rHuman Notch-1/Fc Chimera, CF (R&D Systems Cat#3647-TK) (human, UniProt P46531 19-526); assay: as above
T9 construct: Bought recombinant protein; Fc part of the bought chimera not given

[20] = target: T10, rHuman IGF-1 sR, (IGF-1 sR), CF (R&D Systems Cat#391-GR) (human, UniProt P08069 31-932); assay: as above
T10 construct: Bought recombinant soluble receptor; also called insulin-like growth factor-1 soluble receptor

[21] = target: T11, rHuman P-Cadherin/Fc Chimera, CF (R&D Systems Cat#861-PC) (human, UniProt P22223 108-654); assay: as above
T11 construct: Bought recombinant protein; Fc part of the bought chimera not given

[22] = target: T12, rHuman EGF R/Fc Chimera, CF (R&D Systems Cat#344-ER) (human, UniProt P00533 25-645); assay: as above
T12 construct: Bought recombinant protein; also called epidermal growth factor receptor; Fc part of the bought chimera not given

[23] = target: T13, Recombinant Human DLL4 (R&D Systems Cat#1506-D4/CF) (human, UniProt Q9NR61 27-524); assay: as above
T13 construct: Bought recombinant protein; also called delta-like protein 4; rHuman DLL4

[24] = target: T14, Recombinant Human DLL4 (delta-like protein 4) (human, UniProt Q9NR61 27-524); assay: 96-well plate ECL (MSD) assay, DLL4 immobilised, Fab at 10 nM
T14 construct: also called rHuman DLL4; Delta-like 4

[25] = target: T14, Recombinant Human DLL4 (delta-like …); assay: ELISA, DLL4 coated on the plate, Fab at 100 nM, absorbance at 450 nm

T5 sequence (P08581 25-932, change not shown): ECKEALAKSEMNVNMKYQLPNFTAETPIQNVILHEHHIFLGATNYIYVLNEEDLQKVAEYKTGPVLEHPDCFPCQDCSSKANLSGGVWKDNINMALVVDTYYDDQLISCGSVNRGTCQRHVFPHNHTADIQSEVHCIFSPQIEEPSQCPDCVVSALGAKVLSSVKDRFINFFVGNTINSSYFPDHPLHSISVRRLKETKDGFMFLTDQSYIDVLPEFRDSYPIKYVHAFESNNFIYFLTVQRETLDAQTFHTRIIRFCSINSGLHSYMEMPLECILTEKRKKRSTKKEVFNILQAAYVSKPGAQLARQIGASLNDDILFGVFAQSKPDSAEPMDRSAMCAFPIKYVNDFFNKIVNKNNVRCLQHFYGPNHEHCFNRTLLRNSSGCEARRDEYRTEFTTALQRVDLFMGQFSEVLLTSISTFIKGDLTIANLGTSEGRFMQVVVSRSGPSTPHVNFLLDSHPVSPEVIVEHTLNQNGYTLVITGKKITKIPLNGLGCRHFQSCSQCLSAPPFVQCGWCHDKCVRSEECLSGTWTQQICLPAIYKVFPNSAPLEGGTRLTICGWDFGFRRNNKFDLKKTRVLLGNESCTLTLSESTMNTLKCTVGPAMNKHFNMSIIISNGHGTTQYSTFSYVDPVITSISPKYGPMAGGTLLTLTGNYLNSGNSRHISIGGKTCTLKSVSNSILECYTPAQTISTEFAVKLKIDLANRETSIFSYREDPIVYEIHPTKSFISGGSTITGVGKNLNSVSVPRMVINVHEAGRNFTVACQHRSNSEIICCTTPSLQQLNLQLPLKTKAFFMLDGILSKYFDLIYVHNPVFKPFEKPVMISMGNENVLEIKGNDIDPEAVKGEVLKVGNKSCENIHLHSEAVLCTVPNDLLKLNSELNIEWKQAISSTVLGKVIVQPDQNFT

- ELISA signal [1]: 0.13
- ECL signal [2]: 94300
B1: Fab VH5-51_IGHD5-18*01>3_IGHJ4*01 G100K/G104T (KT) & V3-4_IGLJ1*01 R56I (Fab, V domains shown)
VH: EVQLVQSGAEVKKPGESLKISCKGSGYSFTSYWIGWVRQMPGKGLEWMGIIYPGDSDTRYSPSFQGQVTISADKSISTAYLQWSSLKASDTAMYYCARRKYSYTYDYFDYWGQGTLVTVSS
VL: QTVVTQEPSFSVSPGGTVTLTCGLSSGSVSTSYYPSWYQQTPGQAPRTLIYSTNTISSGVPDRFSGSILGNKAALTITGAQADDESDYYCVLYMGSGISYVFGTGTKVTVL
notes: Tested as a Fab (VH-CH1 with His and Flag tags, lambda VL-CL); also called H:KT & L:R56I

- ELISA (Signal-Noise) [3]: 0.28
- ECL signal [4]: 32300
B2: Fab VH5-51_IGHD5-18*01>3_IGHJ4*01 G100K/G104T S28K & V3-4_IGLJ1*01 (Fab, V domains shown)
VH: B1 VH with S28K
VL: B1 VL with I56R
notes: Fab made in E. coli; also called KT S28K

- ELISA signal [5]: 0.2
- ELISA signal [6]: 0.27
- ELISA signal [7]: 0.239
- ELISA signal [8]: 0.227
- ELISA signal [9]: 0.251
- ELISA signal [10]: 0.212
- ELISA signal [11]: 0.213
- ECL signal [12]: 83900
B3: Fab VH5-51_IGHD5-18*01>3_IGHJ4*01 G100K/G104T (KT) & V3-4_IGLJ1*01 R56A (Fab, V domains shown)
VH: B1 VH
VL: B1 VL with I56A
notes: Fab; also called H:KT & L:R56A

- ELISA (Signal-Noise) [13]: 0
- ECL Signal/Blank [14]: 57.7
B4: Fab VH5-51_IGHD5-18*01>3_IGHJ4*01 G100K/G104T P53A & V3-4_IGLJ1*01 (Fab, V domains shown)
VH: B1 VH with P53A
VL: B1 VL with I56R
notes: Tested as Fab; CH1 with His6/Flag tags (plasmid A) and lambda CL (plasmid E) come from the expression vectors; also called KT P53A

- ECL signal/blank ratio [15]: 1.7
- ECL signal/blank ratio [16]: 1.3
- ECL signal/blank ratio [17]: 1.9
- ECL signal/blank ratio [18]: 1.6
- ECL signal/blank ratio [19]: 1.6
- ECL signal/blank ratio [20]: 1.2
- ECL signal/blank ratio [21]: 1.3
- ECL signal/blank ratio [22]: 1.5
- ECL signal/blank ratio [23]: 1.4
B7: Fab VH3-23_IGHD2-21*01>3_IGHJ6*01 H100E/S108P/Y113G/Y111P & V2-13_IGLJ2*01 (Fab, V domains shown)
VH: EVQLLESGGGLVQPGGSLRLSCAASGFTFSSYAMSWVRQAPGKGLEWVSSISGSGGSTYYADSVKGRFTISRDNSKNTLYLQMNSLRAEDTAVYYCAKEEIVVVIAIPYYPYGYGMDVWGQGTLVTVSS
VL: SSELTQDPAVSVALGQTVRITCQGDSLRSYYASWYQQKPGQAPVLVIYGKNNRPSGIPDRFSGSSSGNTASLTITGAQAEDEADYYCNSRDSSGNHLVVFGGGTKLTVL
notes: Fab made in E. coli: VH joined to CH1 (with His and Flag tags, plasmid A) and VL to lambda CL (plasmid E); also called EPG Y111P

The remaining lines, values behind:

B5: Fab VH3-23_IGHD2-21*01>3_IGHJ6*01 H100E/S108P/Y113G/Y110G & V2-13_IGLJ2*01 (Fab, V domains shown)
VH: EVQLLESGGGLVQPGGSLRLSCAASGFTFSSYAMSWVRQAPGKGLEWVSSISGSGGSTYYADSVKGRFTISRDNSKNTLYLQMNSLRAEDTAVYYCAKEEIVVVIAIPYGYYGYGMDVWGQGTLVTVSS
VL: B7 VL
notes: Fab made in E. coli: VH joined to CH1 (with His and Flag tags, plasmid A) and VL to lambda CL (plasmid E); also called EPG Y110G
- ECL signal/blank ratio [15]: 1
- ECL signal/blank ratio [16]: 1
- ECL signal/blank ratio [17]: 2
- ECL signal/blank ratio [18]: 1.3
- ECL signal/blank ratio [19]: 1.6
- ECL signal/blank ratio [20]: 1.4
- ECL signal/blank ratio [21]: 0.8
- ECL signal/blank ratio [22]: 1.5
- ECL signal/blank ratio [23]: 1.3

B6: Fab VH3-23_IGHD2-21*01>3_IGHJ6*01 H100E/S108P/Y113G/Y111E & V2-13_IGLJ2*01 (Fab, V domains shown)
VH: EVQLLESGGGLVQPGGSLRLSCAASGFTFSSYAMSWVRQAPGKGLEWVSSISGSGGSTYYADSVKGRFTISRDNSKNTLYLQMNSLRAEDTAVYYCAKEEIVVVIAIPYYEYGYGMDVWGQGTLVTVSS
VL: B7 VL
notes: Fab made in E. coli: VH joined to CH1 (with His and Flag tags, plasmid A) and VL to lambda CL (plasmid E); also called EPG Y111E
- ECL signal/blank ratio [15]: 2.2
- ECL signal/blank ratio [16]: 1.1
- ECL signal/blank ratio [18]: 1.5
- ECL signal/blank ratio [19]: 1.5
- ECL signal/blank ratio [20]: 1.4
- ECL signal/blank ratio [21]: 2.3
- ECL signal/blank ratio [22]: 1.4
- ECL signal/blank ratio [23]: 1.5

B8: Fab VH1-46_IGHD6-6*01_IGHJ1*01 S102A/S103P/S104F/H111F/G56A & L6_IGKJ1*01 S28N/S30D/S31H (Fab, V domains shown)
VH: QVQLVQSGAEVKKPGASVKVSCKASGYTFTSYYMHWVRQAPGQGLEWMGIINPSGASTSYAQKFQGRVTMTRDTSTSTVYMELSSLRSEDTAVYYCAREEYAPFSAEYFQFWGQGTLVTVSS
VL: EIVLTQSPATLSLSPGERATLSCRASQNVDHYLAWYQQKPGQAPRLLIYDASNRATGIPARFSGSGSGTDFTLTISSLEPEDFAVYYCQQRSNWPPWTFGQGTKVEIKR
notes: also called H:APFF G56A & L:NDH
- ECL Signal [10 nM Fab] [24]: 71600
- ELISA Signal [100 nM Fab] [25]: 0.2

B9: Fab VH1-46_IGHD6-6*01_IGHJ1*01 S102A/S103P/S104F/H111F/S54A & L6_IGKJ1*01 S28N/S30D/S31H (Fab, V domains shown)
VH: B8 VH with S54A, A56G
VL: B8 VL
notes: also called H:APFF S54A & L:NDH
- ECL Signal [10 nM Fab] [24]: 46700
- ELISA Signal [100 nM Fab] [25]: 0.08
